This note sets out measurements from patent publication US20090155236A1, “Peptide sequence for modulation of delta protein kinase c” (NATIONAL INSTITUES OF HEALTH (NIH), U.S. DEPT OF HEALTH AND …, priority 2004, published 2009).

In assay [1] the target is T1, delta PKC-annexin V complex (Cricetulus griseus, UniProt A0A8C2N0P5+G3I5A4).
T1 construct: endogenous in cells; host or cells: CHO cells
The assay can be described thus: Dissociation of delta PKC-annexin V complex in CHO cells. In kind it is cell-based. The following applies: CHO cells pretreated with the agent, then 10 nM PMA, FIG. 7. On the procedure:
To determine the requirements for complex disassociation and subsequent translocation, PMA-induced formation of the delta PKC-annexin V complex was conducted under energetically limiting conditions caused by ATP depletion using 2-deoxyglucose (Kondo, T. et al., J. Lab. Clin. Med., 94:617-23 (1979)), and with cytoskeletal perturbations by pretreatment with actin […] agent cytochalasin D or microtubule-destabilizing agent nocodazole.
CHO cells were pretreated with one of the following: (1) 2-deoxyglucose (20 mM) for 4 hours in a glucose-free buffer; (2) nocodazole (10 μM) for 2 hours; or (3) cytochalasin D (2 μM) for 1 hour. The cells were then treated with phorbol myristate acetate (PMA; 10 nM) for times of between 30 seconds to 5 minutes. After the lapsed time, the cells were washed with cold PBS, and homogenized on ice with trituration in homogenization buffer (20 mM Tris pH 7.4, 2 mM EDTA, 10 mM EGTA, 0.25M sucrose, 12 mM β-mercaptoethanol, and protease inhibitor cocktail (Sigma), 0.1% formaldehyde. After 30 min at 4° C., the lysates were quenched with 0.14M glycine for 20 min at 4° C., and samples spun at 14K rpm at 4° C. The supernatant was incubated with 1 μg anti-delta PKC antibody (Santa Cruz Biotechnology, Inc., Santa Cruz, Calif.) for 1 hour, then with proteinG beads (Invitrogen Corporation) for 3 hours at 4° C. The beads where then washed with wash buffer (20 mM Tris pH 7.5, 2 mM EDTA, 100 mM NaCl, 12 mM β-mercaptoethanol, 0.1% Triton), and separated on 7.5% SDS-PAGE, transferred to nitrocellulose, and probed with anti-annexin V (Santa Cruz Biotechnology, Inc., Santa Cruz, Calif.), followed by visualization by ECL Western blotting.

Assay [2] concerns the target T2, annexin V and delta PKC interaction (Homo sapiens, UniProt Q05655).
T2 construct: endogenous in cells; host or cells: cardiomyocytes
The assay can be described thus: Cross-linking immuno-precipitation of delta PKC probed with anti-annexin V in cardiac myocytes. In kind it is cell-based. On the procedure: Example 4 describes a study where cardiac myocytes were stimulated with a selected agent and then immuno-precipitated with anti-delta PKC after cross-linking. The cell lysates were then probed with anti-annexin V and visualized with ECL Western blotting. […] The stimulation agent was applied to the cells for times of between 30 seconds to 20 minutes, prior to lysing.
Cardiomyocytes were treated with phorbol 12-myristate 13-acetate (PMA; 10 nM), hydrogen peroxide (H2O2; 5 mM), JTV-519, or delta V1-1 peptide (1 μM) and JTV-519 (1 μM), for times of between 30 seconds to 5 minutes. After the lapsed time, the cells were washed with cold PBS, and homogenized on ice with trituration in homogenization buffer (20 mM Tris pH 7.4, 2 mM EDTA, 10 mM EGTA, 0.25M sucrose, 12 mM O-mercaptoethanol, and protease inhibitor cocktail (Sigma), 0.1% formaldehyde. After 30 min at 4° C., the lysates were quenched with 0.14M glycine for 20 min at 4° C., and samples spun at 14K rpm at 4° C. The supernatant was incubated with 1 μg anti-delta PKC antibody (Santa Cruz Biotechnology, Inc., Santa Cruz, Calif.) for 1 hour, then with proteinG beads (Invitrogen Corporation) for 3 hours at 4° C. The beads where then washed with wash buffer (20 mM Tris pH 7.5, 2 mM EDTA, 100 mM NaCl, 12 mM β-mercaptoethanol, 0.1% Triton), and separated on 7.5% SDS-PAGE, transferred to nitrocellulose, and probed with anti-annexin V (Santa Cruz Biotechnology, Inc., Santa Cruz, Calif.), followed by visualization by ECL Western blotting.

Assay [3] concerns the target T3, delta PKC/annexin V interaction (Cricetulus griseus, UniProt A0A8C2N0P5).
T3 construct: endogenous in cells; host or cells: CHO cells
The assay is described as follows: Cross-linking co-immunoprecipitation of annexin V and delta PKC in CHO cells. In kind it is cell-based. Here is the method: A similar study was conducted to further evaluate the in vitro, intracellular interactions of delta PKC and annexin V. Cellular interactions of delta PKC/annexin V interaction in CHO cells were stabilized with a cross-linking agent, after stimulation with 10 nM PMA. The complexes formed with delta PKC were then immuno-precipitated and tested for the presence of annexin V. The SDS-PAGE gel is shown in FIG. 6A and a corresponding graph quantifying percent association of annexin V and delta PKC as a function of time is shown in FIG. 6B. […] The interaction is relatively short-lived, and the proteins disassociated after 1 minute of stimulation.
The effect of JTV-519, an activator of delta PKC, on the association of annexin V and delta PKC was also evaluated in this study. Cells were treated with JTV-519, and the association of annexin V and delta PKC was examined using the co-immunoprecipitation procedure described above. […] PMA caused the disassociation of the JTV-induced complex at 30 seconds, the time of maximal PMA-induced association. […] Whereas the cytosolic fraction of the cells contained a steady low level of the complex, the majority of the complex was found in the particulate fraction of the cells, and disappearance from the particulate fraction followed the same time-course as observed in whole cell lysates (compare FIG. 6D bottom panel with FIG. 6B).

Assay [4] addresses delta PKC (Rattus norvegicus, UniProt P09215). The assay can be described thus: ELISA of annexin V peptide variants fused to alkaline phosphatase on immobilized delta PKC. In kind it is binding. Also on record: key to Binding: +++: Relative binding is shown in Table 1 by “+” and “−” indicators; ++: Relative binding is shown in Table 1 by “+” and “−” indicators; Relative binding is shown in Table 1 by “+” and “−” indicators; Relative binding is shown in Table 1 by “+” and “−” indicators; −−−: Relative binding is shown in Table 1 by “+” and “−” indicators. The conditions noted are these: Table 1; for Binding: relative binding of peptide-alkaline phosphatase fusion to immobilized delta PKC. Here is the method:
Binding of the annexin V peptide (SEQ ID NO: 1) and of variants of the peptide to delta PKC was examined using an ELISA protocol, detailed in Example 6. Delta PKC (SEQ ID NO:3) was immobilized in the wells of a microtiter plate and then incubated with the annexin V peptide conjugated to alkaline phosphatase or with variants of the annexin V peptide, also conjugated to alkaline phosphatase.
Recombinant delta PKC protein (SEQ ID NO:3) was bound to a Falcon plate for 1 hour at room temperature in carbonate buffer pH 9.6. A 1:10-1:100 dilution of PKC enzyme from glycerol stock or 100 μg was prepared. β-mercaptoethanol at 1 μL/mL was added into the PKC. Each well contained approximately 100 μL of PKC; some wells without PKC were present to correct for non-specific binding.
Next, all wells were blocked with 200 μL of super block or 0.5% milk in carbonate buffer. Blocking was done twice, for 5 minutes each time.
Without washing the wells, 100 μL of a peptide fused to alkaline phosphatase protein (i.e., peptide-alkaline phosphatase fusion) was added to the wells, and incubated for 30 minutes at 37° C. The wells were then washed three times, for 2 minutes each time, with TBS/Tween (0.1%). The wells were allowed to develop overnight before reading absorbance at 405 nm.

Assay [5] deals with isolated rat hearts. The assay can be described thus: Ex vivo ischemia/reperfusion in isolated rat hearts. The conditions noted are these: administered after ischemia during the initial 10 minutes of reperfusion. Here is the method:
The physiologic impact of disruption of the delta PKC-annexin V complex was evaluated in an ex vivo ischemia/reperfusion study using the annexin V peptide, TAT-AnxV, and its mutant, TAT-AnxV(R→E). As described in Example 7, isolated rat hearts were treated with TAT-AnxV or TAT-AnxV(R→E) for 10 minutes prior to induction of an ischemic episode. The ischemic episode lasted for 30 minutes, at which time flow to the heart was returned for 60 minutes (reperfusion). After the reperfusion period, cardiac effluent was collected and analyzed for creatine phosphokinase (CPK). The hearts were stained and visually inspected for live and dead tissue. Infarct size was measured by taking the average of the dead (white) tissue on both sides of the tissue slice.
A similar study was conducted, except rather than pretreating the isolated hearts with the annexin V peptide, the peptide was administered after the ischemic event and during the initial 10 minutes of the reperfusion period. Hearts were similarly treated with the mutant peptide, TAT-AnxV(R→E).
Rats were anesthetized and their hearts were rapidly removed and cannulated via the aorta for retrograde perfusion (Colbert, M. et al., J. Clin. Invest., 100:1958 (1997)). The hearts were left untreated, or were pretreated with the annexin V peptide, conjugated to TAT, (TAT-AnxV, SEQ ID NO:29) or with its mutant, TAT-AnxV(R→E) (SEQ ID NO:31), for 10 minutes prior to a 30 minutes of ischemia. Ischemia was induced by interrupting flow for 30 minutes and then reestablishing flow for 60 minutes (reperfusion). Cardiac effluent was collected for 15 minutes after reperfusion and assayed for creatine phosphokinase (CPK) using a Sigma kit. Hearts were stained with 2,3,5-triphenyltetrazolium chloride ([…]) to visualize live tissue (red) and dead tissue (white), and infarct size was measured by taking the average of the white area on both sides of the tissue slice (n=3, p<0.05). Results are shown in FIGS. 9A-9B and FIGS. 10A-10B.

The mark [6] stands for this setting: cardiac myocytes stimulated with the agent, FIG. 5.

Bounds are passed on as bounds.

T1 sequence (A0A8C2N0P5 1-676): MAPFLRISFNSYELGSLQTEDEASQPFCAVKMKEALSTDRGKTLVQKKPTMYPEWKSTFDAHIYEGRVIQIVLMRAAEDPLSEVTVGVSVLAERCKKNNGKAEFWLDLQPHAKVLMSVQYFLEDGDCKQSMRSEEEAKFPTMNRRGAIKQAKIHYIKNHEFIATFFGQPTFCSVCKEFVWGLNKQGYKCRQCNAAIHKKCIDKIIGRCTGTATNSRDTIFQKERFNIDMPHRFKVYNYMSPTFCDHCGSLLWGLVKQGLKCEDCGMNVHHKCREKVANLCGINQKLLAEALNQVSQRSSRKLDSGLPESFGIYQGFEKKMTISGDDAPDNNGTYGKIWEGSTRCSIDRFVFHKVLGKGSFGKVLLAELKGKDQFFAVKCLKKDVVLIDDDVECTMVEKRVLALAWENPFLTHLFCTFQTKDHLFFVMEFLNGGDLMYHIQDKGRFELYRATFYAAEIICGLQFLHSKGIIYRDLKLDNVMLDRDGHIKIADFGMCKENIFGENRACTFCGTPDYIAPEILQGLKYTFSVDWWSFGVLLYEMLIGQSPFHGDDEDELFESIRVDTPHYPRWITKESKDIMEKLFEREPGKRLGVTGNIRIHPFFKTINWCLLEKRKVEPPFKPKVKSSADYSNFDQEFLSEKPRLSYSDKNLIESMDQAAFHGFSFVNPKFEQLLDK
T1 sequence (G3I5A4 1-321): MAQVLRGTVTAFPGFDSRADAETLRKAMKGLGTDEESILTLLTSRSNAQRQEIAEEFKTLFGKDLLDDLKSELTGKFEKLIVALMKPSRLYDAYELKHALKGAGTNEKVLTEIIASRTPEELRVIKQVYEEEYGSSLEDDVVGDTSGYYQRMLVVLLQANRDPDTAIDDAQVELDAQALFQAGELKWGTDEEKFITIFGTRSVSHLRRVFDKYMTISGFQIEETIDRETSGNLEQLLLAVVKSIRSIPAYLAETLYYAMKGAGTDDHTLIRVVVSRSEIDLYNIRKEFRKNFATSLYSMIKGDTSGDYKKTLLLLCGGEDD
T3 sequence (A0A8C2N0P5 1-676): as the sequence (A0A8C2N0P5 1-676) above
T3 sequence (G3I5A4 1-321 partner): as the sequence (G3I5A4 1-321) above
T2 sequence (Q05655 whole entry): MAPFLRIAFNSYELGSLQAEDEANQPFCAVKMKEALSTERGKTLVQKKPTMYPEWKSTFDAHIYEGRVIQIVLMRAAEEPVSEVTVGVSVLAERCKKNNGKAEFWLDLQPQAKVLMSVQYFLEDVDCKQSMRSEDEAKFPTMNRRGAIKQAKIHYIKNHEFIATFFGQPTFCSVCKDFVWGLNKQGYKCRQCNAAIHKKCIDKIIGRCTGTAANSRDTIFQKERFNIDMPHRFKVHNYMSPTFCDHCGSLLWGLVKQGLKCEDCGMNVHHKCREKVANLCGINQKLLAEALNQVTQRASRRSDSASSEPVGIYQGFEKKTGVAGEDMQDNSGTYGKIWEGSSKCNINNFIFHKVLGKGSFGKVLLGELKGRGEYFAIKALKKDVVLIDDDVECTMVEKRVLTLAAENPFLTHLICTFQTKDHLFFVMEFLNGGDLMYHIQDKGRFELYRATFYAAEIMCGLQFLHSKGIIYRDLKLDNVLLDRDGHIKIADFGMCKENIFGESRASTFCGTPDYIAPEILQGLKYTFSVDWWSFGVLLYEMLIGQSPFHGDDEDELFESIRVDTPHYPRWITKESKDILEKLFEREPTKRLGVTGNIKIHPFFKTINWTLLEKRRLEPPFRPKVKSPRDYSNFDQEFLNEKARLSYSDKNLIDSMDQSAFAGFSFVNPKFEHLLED
Sequence of delta PKC (P09215 with tags, fused parts or gaps with the stated changes limits assumed): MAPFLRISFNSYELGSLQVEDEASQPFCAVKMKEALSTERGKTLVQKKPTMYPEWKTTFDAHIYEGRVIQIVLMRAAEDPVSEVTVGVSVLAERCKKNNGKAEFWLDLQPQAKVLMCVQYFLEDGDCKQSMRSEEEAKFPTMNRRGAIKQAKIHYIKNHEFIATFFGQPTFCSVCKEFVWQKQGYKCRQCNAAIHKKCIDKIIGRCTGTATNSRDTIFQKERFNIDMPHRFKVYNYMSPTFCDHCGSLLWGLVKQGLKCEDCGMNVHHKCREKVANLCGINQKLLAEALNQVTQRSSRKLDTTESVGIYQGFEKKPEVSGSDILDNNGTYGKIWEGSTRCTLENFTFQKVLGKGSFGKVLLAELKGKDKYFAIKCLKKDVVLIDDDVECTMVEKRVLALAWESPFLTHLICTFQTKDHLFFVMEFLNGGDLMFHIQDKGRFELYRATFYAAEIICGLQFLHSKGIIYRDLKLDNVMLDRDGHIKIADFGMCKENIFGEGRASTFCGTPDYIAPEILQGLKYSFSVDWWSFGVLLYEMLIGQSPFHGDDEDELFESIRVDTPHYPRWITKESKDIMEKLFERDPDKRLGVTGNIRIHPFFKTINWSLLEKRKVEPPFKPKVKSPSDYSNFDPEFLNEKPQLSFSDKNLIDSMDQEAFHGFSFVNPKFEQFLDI

Consider `O=CC[C@@H](O)[C@H](O)[C@H](O)CO` [2-deoxyglucose], for which, in assay [1], the “disassociation of the delta PKC-annexin V complex” value is “substantial levels of the complex even after 5 minutes”.
`CCCCCCCCCCCCCC(=O)O[C@@H]1[C@@H](C)[C@@]2(O)[C@@H](C=C(CO)C[C@]3(O)C(=O)C(C)=C[C@@H]23)[C@@H]2C(C)(C)[C@]12OC(C)=O` [PMA, phorbol 12-myristate 13-acetate]: the “interaction of annexin V and delta PKC” value in assay [2] (setting [6]) is given as “Annexin V interacts with delta PKC early after stimulation”. In addition, in assay [3] (10 nM PMA, FIGS. 6A-6B), the “time of stimulation after which annexin V and delta PKC disassociated” value came to 1 min; the “time to induction of annexin V and delta PKC interaction” value is not above 30 s. For the same molecule, the “cellular localization of the delta PKC-annexin V complex” value in assay [3] (soluble versus particulate fraction, FIG. 6D) is reported as “maximum complex accumulation in the particulate fraction”.
Take “delta V1-1 peptide: amino acid sequence from the first variable region of delta PKC (residues 8-17); peptide inhibitor of delta PKC (SFNSYELGS; listed as Rattus norvegicus)”: in assay [2] (cardiac myocytes pre-treated with the peptide for 20 minutes, then JTV-519 for 20 minutes, FIG. 5 Lane 10), the “interaction of annexin V and delta PKC” value is given as “blocked”.
For “MAAAEDP (variant of SEQ ID NO1) [SEQ ID NO:17]”, the Binding result in assay [4] is “−”.
As for “MRAAQDP (variant of SEQ ID NO1) [SEQ ID NO:14]”, in assay [4], the “binding to delta PKC” value is “bind to delta PKC” and the Binding entry is reported as “++”.
Consider “LQANRDPD (listed as Homo sapiens) [SEQ ID NO:1, peptide from annexin V, residues 157-164]”, for which, in assay [5] (FIG. 10A), the infarct size result is “no cardioprotective effect was observed”. The “creatine phosphokinase (CPK) released” value in assay [5] (FIG. 10B) is reported as “does not confer a cardioprotective effect”.
`COC(=O)Nc1nc2ccc(C(=O)c3cccs3)cc2[nH]1` [nocodazole]: the “disassociation of the delta PKC-annexin V complex” value in assay [1] was “substantial levels of the complex even after 5 minutes”.
Consider “MEAAEDP (variant of SEQ ID NO1) [SEQ ID NO:15]”, for which, in assay [4], the “binding to delta PKC” value is reported as “bind to delta PKC” and the Binding entry was “+”.
The corresponding values for “MRAAENP (variant of SEQ ID NO1) [SEQ ID NO:13]” are “bind to delta PKC” and “+++”.
Regarding “MRAAEDP (variant of SEQ ID NO1) [SEQ ID NO:18]”, in assay [4], the Binding result is given as “++”.
Regarding “MQAARDP (variant of SEQ ID NO1) [SEQ ID NO:12]”, in assay [4], the “binding to delta PKC” value was “bind to delta PKC” and the Binding result is “+++”.
For the molecule “MRAAADP (variant of SEQ ID NO1) [SEQ ID NO:16]”, in assay [4], the Binding entry was “−−−”.
Regarding `OO` [H2O2, hydrogen peroxide], the “interaction of annexin V and delta PKC” value in assay [2] (setting [6]) is given as “stimulated delta PKC to a greater extent than exposure for 2 minutes”.
Take `C=C1[C@@H](C)[C@H]2[C@H](Cc3ccccc3)NC(=O)[C@]23[C@H](OC(C)=O)/C=C/[C@@](C)(O)C(=O)[C@@H](C)C/C=C/[C@H]3[C@@H]1O` [cytochalasin D]: in assay [1], the “disassociation of the delta PKC-annexin V complex” value is “did not affect the profile of disassociation”.
